Test results reported in US20160002343A1 (AbbVie / Abbott, published 2016).
Blank lines part the entries; values can stand above or below the binder they belong to.

Experiments:
[1] = target: T1, mouse Transferrin Receptor overexpressed on Hek 293 cells (mouse, UniProt Q62351 1-763); experiment: 293/mTfR cell-based assay
T1 construct: whole, on cells; also called mTfR; Hek293/mTfR
Procedure: (§1) Meso-scale Discovery (MSD) Electrochemiluminescence (ECL) assays to screen for antibodies or DVD-Ig proteins that bind a desired target antigen expressed on the cell surface were performed as follows: Hek 293 cells overexpressing mouse Transferrin Receptor were added onto MSD 96-well plates (MSD Cat# L11 XB-3, lot#2290-EA). The plates which were blocked using blocking buffer (30% FBS Serum (Hyclone) in PBS) at 37° C. for 1 hour. After incubating at room temperature (RT) for 30 minutes with mild agitation, plates were washed with DPBS 3 times and Abs/DVD-Ig proteins (10,000 ng/ml) were added. After incubating for 1 hour at RT, plates were washed 3 times with DPBS and 25 μl of Goat anti-human Sulfo TAG (MSD Cat# R32AC-, Lot# W001162) at 1 μg/ml was added. Following incubation at RT for 1 hour, plates were washed and MSD read buffer was added before reading on a MSD SECTOR Imager 6000. EC50 values were obtained using Xlfit4 software package.

[2] = target: T2, TNF (mouse, UniProt P06804 80-235); experiment: cell-based or functional assay
T2 sequence (looked up): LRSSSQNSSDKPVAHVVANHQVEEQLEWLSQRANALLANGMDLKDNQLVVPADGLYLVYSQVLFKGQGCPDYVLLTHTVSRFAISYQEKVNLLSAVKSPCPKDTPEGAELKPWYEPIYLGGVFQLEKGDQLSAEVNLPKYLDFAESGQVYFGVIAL

[3] = target: T3, rmTfR (123-763) (mouse, UniProt Q62351 123-763); experiment: Biacore SPR, DVD-Ig captured by anti-human IgG Fc, rmTfR (123-763) in solution
T3 construct: range 123-763; also called recombinant mouse transferrin receptor 123-763
T3 sequence (Q62351 123-763): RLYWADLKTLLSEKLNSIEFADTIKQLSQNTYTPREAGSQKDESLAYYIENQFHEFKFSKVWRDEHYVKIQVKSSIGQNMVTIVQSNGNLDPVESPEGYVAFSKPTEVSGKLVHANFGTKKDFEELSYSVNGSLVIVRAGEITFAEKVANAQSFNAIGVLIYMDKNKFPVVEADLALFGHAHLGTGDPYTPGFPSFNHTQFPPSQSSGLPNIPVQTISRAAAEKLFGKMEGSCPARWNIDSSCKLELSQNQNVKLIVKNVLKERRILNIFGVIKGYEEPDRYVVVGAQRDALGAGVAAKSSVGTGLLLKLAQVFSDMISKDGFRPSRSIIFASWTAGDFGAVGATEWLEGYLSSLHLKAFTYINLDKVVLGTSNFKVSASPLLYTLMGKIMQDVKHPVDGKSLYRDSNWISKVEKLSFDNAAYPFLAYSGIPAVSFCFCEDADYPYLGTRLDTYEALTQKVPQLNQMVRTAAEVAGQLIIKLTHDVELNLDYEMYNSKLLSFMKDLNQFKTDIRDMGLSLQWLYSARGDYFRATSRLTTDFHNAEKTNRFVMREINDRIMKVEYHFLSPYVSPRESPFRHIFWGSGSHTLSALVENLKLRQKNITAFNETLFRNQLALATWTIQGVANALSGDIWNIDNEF
Procedure: The BIACORE assay (Biacore, Inc, Piscataway, N.J.) was used to determine the affinity of antibodies or DVD-Ig proteins with kinetic measurements of on-rate and off-rate constants. Binding of antibodies or DVD-Ig protein to a target antigen (for example, a purified recombinant target antigen) was determined by surface plasmon resonance-based measurements with a Biacore® 1000 or 3000 instrument (Biacore® AB, Uppsala, Sweden) using running HBS-EP (10 mM HEPES [pH 7.4], 150 mM NaCl, 3 mM EDTA, and 0.005% surfactant P20) at 25° C. All chemicals were obtained from Biacore® AB (Uppsala, Sweden) or otherwise from a different source as described in the text. For example, approximately 5000 RU of goat anti-human IgG, (Fcγ), fragment specific polyclonal antibody (Pierce Biotechnology Inc, Rockford, Ill.) diluted in 10 mM sodium acetate (pH 4.5) was directly immobilized across a CM5 research grade biosensor chip using a standard amine coupling kit according to manufacturer's instructions and procedures at 25 μg/ml. Unreacted moieties on the biosensor surface were blocked with ethanolamine. Modified carboxymethyl dextran surface in flowcell 2 and 4 was used as a reaction surface. Unmodified carboxymethyl dextran without goat anti-human IgG in flow cell 1 and 3 was used as the reference surface. For kinetic analysis, rate equations derived from the 1:1 Langmuir binding model were fitted simultaneously to association and dissociation phases of all eight injections (using global fit analysis) with the use of BIAevaluation 4.0.1 software. […] The association and dissociation rate constants, kon (M⁻¹ s⁻¹) and koff (s⁻¹) were determined under a continuous flow rate of 25 μl/minute. […] The equilibrium dissociation constant (M) of the reaction between antibodies or DVD-Ig proteins and the target antigen was then calculated from the kinetic rate constants by the following formula: KD=koff/kon. Binding was recorded as a function of time and kinetic rate constants were calculated.

[4] = target: T1, mouse Transferrin Receptor …; experiment: cell-based MSD-ECL binding, Hek293/mTfR cells
Procedure: as §1

[5] = target: mouse Transferrin Receptor overexpressed on Hek 293 cells (mouse) (UniProt Q62351); experiment: TfR binding EC50, cell-based assay (repeats Table 7)
Sequence of mouse Transferrin Receptor overexpressed on Hek 293 cells (mouse) (Q62351 whole entry): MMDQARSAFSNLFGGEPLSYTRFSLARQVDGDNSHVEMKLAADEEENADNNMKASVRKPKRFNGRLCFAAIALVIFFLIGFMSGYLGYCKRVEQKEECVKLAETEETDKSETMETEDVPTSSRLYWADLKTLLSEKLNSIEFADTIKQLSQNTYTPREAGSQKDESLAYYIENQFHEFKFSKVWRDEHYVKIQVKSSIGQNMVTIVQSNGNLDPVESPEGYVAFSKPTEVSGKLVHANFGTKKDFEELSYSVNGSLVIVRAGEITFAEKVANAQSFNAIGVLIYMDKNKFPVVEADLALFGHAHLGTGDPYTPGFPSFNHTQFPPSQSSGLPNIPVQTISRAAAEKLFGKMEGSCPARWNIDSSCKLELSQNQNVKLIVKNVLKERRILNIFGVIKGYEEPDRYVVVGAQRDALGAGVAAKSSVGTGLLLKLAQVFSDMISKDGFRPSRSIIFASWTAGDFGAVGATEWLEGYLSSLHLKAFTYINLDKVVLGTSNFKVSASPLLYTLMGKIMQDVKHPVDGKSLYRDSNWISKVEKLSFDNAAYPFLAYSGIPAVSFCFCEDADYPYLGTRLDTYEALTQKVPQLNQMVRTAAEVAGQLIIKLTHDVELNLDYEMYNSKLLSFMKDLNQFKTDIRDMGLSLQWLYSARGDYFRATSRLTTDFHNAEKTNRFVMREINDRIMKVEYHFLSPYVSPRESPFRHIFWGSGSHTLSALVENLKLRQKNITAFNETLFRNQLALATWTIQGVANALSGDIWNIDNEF

[6] = target: mouse Transferrin Receptor overexpressed on Hek 293 cells (mouse) (UniProt Q62351); experiment: mTfR binding cell-based assay
[7] = target: mouse Transferrin Receptor overexpressed on Hek 293 cells (mouse) (UniProt Q62351); experiment: cell-based MSD-ECL binding, Hek293/mTfR cells

T1 sequence (Q62351 whole entry): as above

- EC50 [1]: 3.76 nM
- L929 TNF Neutralization assay IC50 [2]: 4.94 nM
B1: muTfR(AB405)-SL-muTNF(8C11) (bispecific antibody)
VH: QVQLVQSGAEVKKPGASVKVSCKASGFTFSNYGMHWIRQAPGQGLEWIAMIYYDSSKMNYADTVKGRFTITRDNSTNTLYMELSSLRSEDTAVYYCAVPTSHYVVDVWGQGTTVTVSSASTKGPEFQLQQSGPELVKPGASVRISCKASGYSFTDYNMNWVKQSNGKSLEWVGVINPNYGSSTYNQKFKGKATLTVDQSSSTAYMQLNSLTSEDSAVYYCARKWGQLGRGFFDVWGTGTTVTVSS
VL: EIVMTQSPATLSVSPGERATLSCQASQDIGNWLAWYQQKPGQSPRLLIYGATSLADGVPARFSGSRSGTEFTLTISSLQSEDFAVYYCLQAYNTPWTFGGGTKVEIKRTVAAPSVFIFPPQIVLSQSPAILSASPGEKVTMTCRASSSVSYMHWFQQKPGSSPKPWIYATSNLASGVPARFSGSGSGTSYSLTISRVEAEDAATYYCQQWSSSPLTFGAGTKLELK
notes: DVD-Ig; outer AB405 (TfR), inner 8C11 (TNF); also called TfR(AB405)-SL-TNF DVD-Ig protein; copies: 2 + 2

- L929 TNF Neutralization assay IC50 [2]: 5 nM
B2: anti-TNF antibody 8C11 (antibody, V domains shown)
VH: EFQLQQSGPELVKPGASVRISCKASGYSFTDYNMNWVKQSNGKSLEWVGVINPNYGSSTYNQKFKGKATLTVDQSSSTAYMQLNSLTSEDSAVYYCARKWGQLGRGFFDVWGTGTTVTVSS
VL: QIVLSQSPAILSASPGEKVTMTCRASSSVSYMHWFQQKPGSSPKPWIYATSNLASGVPARFSGSGSGTSYSLTISRVEAEDAATYYCQQWSSSPLTFGAGTKLELKR

- Kd [3]: 1.7 nM
- koff [3]: 4.8e-05 s⁻¹
- kon [3]: 28000 M⁻¹ s⁻¹
- EC50 [4]: 0.15 nM
B3: DVD2360 (bispecific antibody)
VH: EVQLVESGGGLVQPGGSLRLSCAASGFTFSNYGMHWIRQAPGKGLEWIAMIYYDSSKMNYADTVKGRFTISRDNAKNSLYLQMNSLRAEDTAVYYCAVPTSHYVVDVWGQGTTVTVSSASTKGPEVQLLESGGGLVQPGGSLRLSCAASGFTFSNYGMSWVRQAPGKGLEWVASIRSGGGRTYYSDNVKGRFTISRDNSKNTLYLQMNSLRAEDTAVYYCVRYDHYSGSSDYWGQGTLVTVSS
VL: EIVMTQSPATLSVSPGERATLSCQASQDIGNWLAWYQQKPGQSPRLLIYGATSLADGVPARFSGSRSGTEFTLTISSLQSEDFAVYYCLQAYNTPWTFGGGTKVEIKRTVAAPDVVMTQSPLSLPVTPGEPASISCKSSQSLLDSDGKTYLNWLLQKPGQSPQRLIYLVSKLDSGVPDRFSGSGSGTDFTLKISRVEAEDVGVYYCWQGTHFPRTFGQGTKVEIK
notes: DVD-Ig

- EC50 [5]: 13.6 nM
- EC50 [6]: 13.6 nM
- EC50 [7]: 13.6 nM
B4: AB405 (antibody, from another filing, V domains shown)
VH: QVQLVQSGAEVKKPGASVKVSCKASGFTFSNYGMHWIRQAPGQGLEWIAMIYYDSSKMNYADTVKGRFTITRDNSTNTLYMELSSLRSEDTAVYYCAVPTSHYVVDVWGQGTTVTVSS
VL: EIVMTQSPATLSVSPGERATLSCQASQDIGNWLAWYQQKPGQSPRLLIYGATSLADGVPARFSGSRSGTEFTLTISSLQSEDFAVYYCLQAYNTPWTFGGGTKVEIKR
